Three molecules from patent US20240165260A1, “CONJUGATES OF ANTIBODY AND FUNCTIONAL SUBSTANCE OR SALTS THEREOF, AND COMPOUNDS USED IN PRODUCTION OF THE SAME OR SALTS THEREOF” (priority 2021, published 2024) can be followed below.

A short description of data set [1]: Evaluation of hydrophobicity by hydrophobic column chromatography (HIC-HPLC). The class given is physicochemical. The following applies: hydrophobicity measure, Tosoh Biobuthyl NPR column, UV 280 nm. The protocol:
According to a previous report (Anal. Chem., 2019, 91, 20, 12724-12732, which is incorporated herein by reference in its entirety), HIC-HPLC analysis was performed. Measurement was performed using the following conditions. The hydrophobicity of an ADC can be evaluated by retention time of the ADC in HIC chromatogram.
Measurement system: Chromaster (registered trademark) (manufactured by Hitachi, Ltd.)
Column: Tosoh Biobuthyl NPR 2.5 μm 4.6×35 mm column manufactured by Tosoh Bio-Sciences Inc.
Gradient: linear gradient of eluent A/B
Eluent B: 25 mM Na2HPO4/NaH2PO4 (pH 6.0, 25 v/v % isopropanol added)

A short description of data set [2]: Evaluation of aggregation ratio by size exclusion chromatography (SEC-HPLC). The class given is physicochemical. The following applies: UV 280 nm. As for the experimental part:
SEC-HPLC analysis was performed according to a previous report (Chemistry Select, 2020, 5, 8435-8439, which is incorporated herein by reference in its entirety). Measurement was performed using the following conditions.
Measurement system: 1260 HPLC system (manufactured by Agilent)
Column: AdvanceBio SEC 300 Å, 2.7 μm, 4.6 mm×150 mm, manufactured by Agilent Technologies
Eluent: 100 mM sodium dihydrogen phosphate/sodium hydrogen phosphate, aqueous solution of 250 mM sodium chloride (pH 6.8), 10′% v/v isopropanol

In data set [3] the target is cathepsin B (Homo sapiens, UniProt P07858). The data set can be described thus: Cathepsin B cleavability test of ADC mimics (released fluorescent molecules, HPLC/fluorescence). The class given is biochemical. The note with it: 1 mg/mL ADC mimic, MES buffer pH 5.0, 37° C., six hours. As for the experimental part:
Cleave abilities for various ADC mimics by cathepsin B were evaluated by analyzing the amount of fluorescent molecules released from the ADC mimics as described below.
A cathepsin B cleavability test was performed as follows according to a previous report (Nature Communications 2018, 9, 2512, which is incorporated herein by reference in its entirety). An ADC mimic was added to 180 μL of a MES buffer (10 mM MES, 40 μM DTT, pH 5.0) so as to have a concentration of 1 mg/mL, and then 30 μL of the solution was poured into each of six Eppendorf tubes. To each of three of the six samples, 100 μL of acetonitrile was immediately added at 0° C. The mixture was stirred by vortex, and then centrifuged to obtain a precipitate. The resulting supernatant solution was collected and subjected to HPLC analysis. The remaining three samples were incubated at 37° C. for six hours. To each of the samples, 100 μL of acetonitrile was added. The mixture was stirred by vortex, and then centrifuged to obtain a precipitate. The resulting supernatant solution was collected and subjected to HPLC analysis.
For the measurement, the amount of fluorescent molecules released from an ADC mimic was measured using a liquid chromatography/fluorescence detection method. The three samples to which acetonitrile was immediately added at 0° C. in Example 7-1 were taken as 0 hour samples, and the three samples incubated at 37° C. for six hours as described in Example 7-1 were taken as 6 hour samples. A difference in fluorescence intensity between the 6 hour samples and the 0 hour samples was analyzed.
Separately, a correlation between the area of a fluorescence intensity area by HPLC and a concentration was calculated using Pyrene. The difference in fluorescence intensity between the ADC mimics was converted into a concentration using the calculation formula. When the concentration at 0 hour was set to 100%, a ratio of the above-described difference in fluorescence intensity was calculated as a releasing ratio.

Data set [4] in a line: Test for stability of ADC mimic in mouse plasma (released fluorescent molecules). The class given is in vitro ADME. The following applies: 0.1 mg/mL, 37° C., four days. The protocol: An ADC mimic was added to 500 μL of mouse plasma (manufactured by Charles River) so as to have a concentration of 0.1 mg/mL, and then the mixture was subjected to sterile filtration. 50 μL of this solution was poured into each of six Eppendorf tubes. Three of the six samples were stored in an incubator set at 37° C. for four days. The remaining three samples were stored in a freezer at −80° C. for four days similarly. To each of the samples, 100 μL of acetonitrile was added. The mixture was stirred by vortex, and then centrifuged to obtain a precipitate. The resulting supernatant solution was collected and subjected to HPLC analysis.
For the measurement, the amount of fluorescent molecules released from an ADC mimic was measured using a liquid chromatography/fluorescence detection method. The three samples stored in a freezer in Example 9-1 were taken as Day=0 samples, and the three samples stored at 37° C. in Example 9-1 were taken as Day=4 samples. A difference in fluorescence intensity between Day=4 samples and Day=0 samples was analyzed.
A releasing ratio of the fluorescent molecules was calculated according to Example 7-2.
Regarding the results, as illustrated in the following Table, a releasing ratio of the fluorescent molecules was evaluated.

Turning to `CNC(=O)CCSC1CC(=O)N(CCCCCC(=O)N[C@@H](C(=O)N[C@H](CCCNC(N)=O)C(=O)Nc2ccc(COC(=O)N(C)CC(=O)NCc3cc4ccc5cccc6ccc(c3)c4c56)cc2)C(C)C)C1=O` (stereo partly drawn) [ADC mimic 4, reference compound], the Retention time in data set [1] came to 13.1 min. Further, the aggregation ratio in data set [2] turned out to be 6.2%. Moreover, in data set [3], the “Releasing ratio of fluorescent molecule for 6 hours” value was 53%. Moreover, the “Releasing ratio of payload on Day 4” value in data set [4] was 38%.
The corresponding values for `CNC(=O)CCSC1CC(=O)N(CCCCCC(=O)N(CC(=O)O)CC(=O)N[C@H](C(=O)N[C@@H](CCCNC(N)=O)C(=O)Nc2ccc(COC(=O)N(C)CC(=O)NCc3cc4ccc5cccc6ccc(c3)c4c56)cc2)C(C)C)C1=O` (stereo partly drawn) [ADC mimic 3] are 12.7 min, 2.9%, 100% and 9%.
The corresponding values for `CNC(=O)CCSC1CC(=O)N(CCCCCC(=O)N[C@@H](CCC(=O)O)C(=O)N[C@H](C(=O)N[C@@H](CCCNC(N)=O)C(=O)Nc2ccc(COC(=O)N(C)CC(=O)NCc3cc4ccc5cccc6ccc(c3)c4c56)cc2)C(C)C)C1=O` (stereo partly drawn) [ADC mimic 1] are 12.8 min, 3.0%, 88% and 8%.
